Measured values as given in article PMC5608357, “Identification of LAG3 high affinity aptamers by HT-SELEX and Conserved Motif Accumulation (CMA)”.

Assays:
[1] = target: T1, LAG3-Fc (rmLAG3-Fc) (mouse, UniProt Q61790 24-442); assay: filter binding; 2 mM Ca2+; Filter binding: 20 mM HEPES pH 7.4, 150 mM NaCl, 2 mM CaCl2, 37 C, 30 min; SPR: PBS, 0.005% Tween 20, pH 7.4, temperature not stated; settings: protein: recombinant; tags: human IgG2-Fc fusion; chain copies: 2; label: 32P (alpha-ATP)
[2] = target: T1, LAG3-Fc (rmLAG3-Fc); assay: SPR; apparent Kd from equilibrium RU; printed kon 1x10^3, koff <2.1x10^-4 s-1 do not match it; Filter binding: 20 mM HEPES pH 7.4, 150 mM NaCl, 2 mM CaCl2, 37 C, 30 min; SPR: PBS, 0.005% Tween 20, pH 7.4, temperature not stated; settings: protein: recombinant; tags: human IgG2-Fc fusion; chain copies: 2

T1 sequence (Q61790 24-442): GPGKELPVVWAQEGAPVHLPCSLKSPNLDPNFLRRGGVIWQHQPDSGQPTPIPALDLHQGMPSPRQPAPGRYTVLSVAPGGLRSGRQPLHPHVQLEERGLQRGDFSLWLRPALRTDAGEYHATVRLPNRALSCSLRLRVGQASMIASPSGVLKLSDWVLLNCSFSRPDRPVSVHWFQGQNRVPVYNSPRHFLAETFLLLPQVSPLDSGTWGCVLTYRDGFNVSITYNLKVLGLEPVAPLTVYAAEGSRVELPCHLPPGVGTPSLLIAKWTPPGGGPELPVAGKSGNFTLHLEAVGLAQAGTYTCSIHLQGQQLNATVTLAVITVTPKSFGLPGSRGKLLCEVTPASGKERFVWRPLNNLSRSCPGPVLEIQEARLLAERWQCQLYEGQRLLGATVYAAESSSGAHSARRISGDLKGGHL

B1: LAG3 Apt5 (structured_RNA)
RNA: GGGAGAGAGAUAUAAGGGUCUUGCCCAUCGACAAUAGAGCCCAGUCGCUGCCCAUUACCAAAUUCUCUCC
modifications: 2'-F-U, 2'-F-C
B1 was tested, and the Kd [1] was 200 nM.

B2: LAG3 Apt2 (structured_RNA)
RNA: GGGAGAGAGAUAUAAGGGUCUUGCCUGAUGGAGUUGGAGAGGACCAUCACCCAUUACCAAAUUCUCUCCC
modifications: 2'-F-U, 2'-F-C
B2 gave a Kd [1] of 50 nM.

B3: LAG3 Apt1 (structured_RNA)
RNA: GGGAGAGAGAUAUAAGGGCCUCCUGAUACCCGCUGCUAUCUGGACCGAUCCCAUUACCAAAUUCUCUCCC
modifications: 2'-F-U, 2'-F-C
B3 was tested, and the Kd [1] was 20 nM.

B4: LAG3 Apt1, biotinylated (structured_RNA)
RNA: B3 RNA
modifications: 2'-F-U, 2'-F-C
B4 showed a Kd [2] of 2.7 nM.

B5: LAG3 Apt4 (structured_RNA)
RNA: GGGAGAGAGAUAUAAGGGACCGAAUCUGGUUAAUCUGCCUCACGUUAGGCCCAUUACCAAAUUCUCUCCC
modifications: 2'-F-U, 2'-F-C
B5 showed a Kd [1] of 100 nM.
